Measured values as given in patent US20120077731A1 (Ablynx, published 2012).

Tests used:
[1] = biological target: T1, Human plasma sIL-6R (human, UniProt P08887 20-355, limits assumed); test: plasma potency ELISA, human plasma
T1 construct: also called plasma-derived human IL-6R
T1 sequence (looked up): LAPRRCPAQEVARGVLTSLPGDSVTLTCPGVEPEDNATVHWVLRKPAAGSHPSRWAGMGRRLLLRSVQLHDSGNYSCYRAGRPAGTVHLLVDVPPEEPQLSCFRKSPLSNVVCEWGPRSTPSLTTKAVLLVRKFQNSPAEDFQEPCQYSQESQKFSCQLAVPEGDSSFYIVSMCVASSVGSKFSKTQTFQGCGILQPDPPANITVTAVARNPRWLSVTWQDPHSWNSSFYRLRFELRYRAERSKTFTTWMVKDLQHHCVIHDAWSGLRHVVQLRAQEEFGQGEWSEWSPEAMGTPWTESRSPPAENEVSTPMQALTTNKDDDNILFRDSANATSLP

[2] = biological target: T1, Human plasma sIL-6R; test: plasma potency ELISA, human plasma, normal IL-6 (EC50)
[3] = biological target: T2, Human membrane IL-6R on cells (human, UniProt P08887 20-468); test: flow cytometry, human PBL, granulocytes donor 2
T2 construct: whole, on cells; also called cell-surface expressed human IL-6R
T2 sequence (looked up): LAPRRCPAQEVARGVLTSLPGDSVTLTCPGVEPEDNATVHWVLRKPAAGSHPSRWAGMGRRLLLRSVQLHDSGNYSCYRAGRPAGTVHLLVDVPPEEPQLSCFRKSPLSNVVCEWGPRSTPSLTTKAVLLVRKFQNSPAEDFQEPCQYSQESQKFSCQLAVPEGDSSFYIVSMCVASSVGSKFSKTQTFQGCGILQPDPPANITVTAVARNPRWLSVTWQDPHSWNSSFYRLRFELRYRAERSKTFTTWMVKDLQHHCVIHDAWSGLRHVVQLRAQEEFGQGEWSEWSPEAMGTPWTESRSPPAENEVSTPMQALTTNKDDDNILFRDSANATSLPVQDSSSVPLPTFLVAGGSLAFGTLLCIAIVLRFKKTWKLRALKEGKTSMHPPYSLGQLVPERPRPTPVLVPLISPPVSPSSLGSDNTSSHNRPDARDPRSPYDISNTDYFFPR
Experimental: (§1) The Nanobodies were incubated in EDTA-treated blood from 2 donors and bound Nanobody was detected by flow cytometry. Lymphocytes, monocytes and granulocytes were gated based on FSC/SSC properties (FIG. 40) and bound Nanobodies were detected in the PE channel.

[4] = biological target: T2, Human membrane IL-6R on cells; test: cell-based or functional assay
[5] = biological target: T3, Cyno plasma sIL-6R (cynomolgus monkey, UniProt A0A2K5WN54 60-396); test: plasma potency assay, cyno plasma, 2.4 nM IL6; blocked ligand IL-6
T3 construct: also called cynomolgus sIL-6R
T3 sequence: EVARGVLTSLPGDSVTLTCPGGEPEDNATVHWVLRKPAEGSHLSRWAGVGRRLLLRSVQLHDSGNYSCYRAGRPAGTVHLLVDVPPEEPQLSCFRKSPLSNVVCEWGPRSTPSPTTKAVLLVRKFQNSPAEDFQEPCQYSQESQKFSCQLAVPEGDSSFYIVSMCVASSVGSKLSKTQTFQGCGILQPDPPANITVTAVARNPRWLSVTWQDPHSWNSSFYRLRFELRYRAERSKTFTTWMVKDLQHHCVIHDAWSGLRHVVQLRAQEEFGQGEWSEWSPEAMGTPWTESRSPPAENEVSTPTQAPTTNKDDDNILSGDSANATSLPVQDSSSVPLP
Experimental: (§2) All 5 affinity matured Nanobodies and the sequence optimized Nanobody were also tested in a plasma potency assay. […] TMB was used as substrate.

[6] = biological target: T2, Human membrane IL-6R on cells; test: cell-based or functional assay; remark: listed apart in the source
[7] = biological target: T1, Human plasma sIL-6R; test: plasma potency assay, human plasma, 2.4 nM IL6; blocked ligand IL-6
Experimental: as §2

[8] = biological target: T4, Human soluble IL-6R (human, UniProt P08887 20-358); test: Biacore T100, IL-6R covalently coupled
T4 construct: Soluble recombinant form; biotinylated in some assays; also called hIL-6R; human IL-6R
T4 sequence (looked up): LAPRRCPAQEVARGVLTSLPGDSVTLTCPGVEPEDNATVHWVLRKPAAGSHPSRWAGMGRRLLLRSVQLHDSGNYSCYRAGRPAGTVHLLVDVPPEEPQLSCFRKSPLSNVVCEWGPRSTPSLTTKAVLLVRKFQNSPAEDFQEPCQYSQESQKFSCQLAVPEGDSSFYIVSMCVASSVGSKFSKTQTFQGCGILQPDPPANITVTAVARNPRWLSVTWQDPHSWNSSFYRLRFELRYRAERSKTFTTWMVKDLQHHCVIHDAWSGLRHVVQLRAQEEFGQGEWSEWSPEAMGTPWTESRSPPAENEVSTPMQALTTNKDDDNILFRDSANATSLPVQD

[9] = biological target: T2, Human membrane IL-6R on cells; test: flow cytometry, human PBL, monocytes donor 2
Experimental: as §1

[10] = biological target: T1, Human plasma sIL-6R; test: plasma potency ELISA, human plasma, high IL-6 (EC95)
[11] = biological target: T2, Human membrane IL-6R on cells; test: flow cytometry, human PBL, monocytes donor 1
Experimental: as §1

[12] = biological target: T3, Cyno plasma sIL-6R; test: plasma potency ELISA, cyno plasma
[13] = biological target: T4, Human soluble IL-6R; test: ELISA, IL6R20A11 on biotinylated human sIL-6R on neutravidin plate
[14] = biological target: T5, Mouse IL-6R (mouse, UniProt P22272 20-364, limits assumed); test: competition ELISA: IL6R20A11 (0.4 nM) pre-incubated with a series of recombinant mouse sIL-6R; free IL6R20A11 captured on biotinylated human sIL-6R on neutravidin
T5 construct: also called mouse sIL-6R
T5 sequence (looked up): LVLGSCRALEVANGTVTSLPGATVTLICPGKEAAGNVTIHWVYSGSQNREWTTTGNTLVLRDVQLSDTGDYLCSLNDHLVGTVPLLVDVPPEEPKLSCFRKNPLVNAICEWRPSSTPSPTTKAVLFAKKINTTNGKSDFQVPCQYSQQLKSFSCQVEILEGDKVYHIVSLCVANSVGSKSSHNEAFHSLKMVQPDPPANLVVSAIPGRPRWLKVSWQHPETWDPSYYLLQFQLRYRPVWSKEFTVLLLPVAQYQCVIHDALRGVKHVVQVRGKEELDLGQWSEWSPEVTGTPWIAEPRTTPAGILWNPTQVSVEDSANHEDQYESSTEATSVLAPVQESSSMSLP

IC50 [1]: 0.198 nM
IC50 [2]: 0.198 nM
EC50 [3]: 5.61 nM
IC50 (nM), TF-1 proliferation at 100 IU/mL IL-6 [4]: 0.283 nM
IC50 [5]: 0.09 nM
IC50 (nM), TF-1 proliferation at 5000 IU/mL IL-6 [6]: 15.2 nM
IC50 [7]: 0.09 nM
koff [8]: 1.9e-05 s⁻¹
EC50 [9]: 4.78 nM
IC50 [10]: 0.356 nM
EC50 [11]: 3.62 nM
IC50 [12]: 0.117 nM
EC50 [13]: 0.35 nM
B1: PMP20A11 (VHH)
VHH: EVQLVESGGGLVQPGGSLRLSCAASGSVFKINVMAWYRQAPGKGRELVAGIISGGSTSYADSVKGRFTISRDNAKNTLYLQMNSLRPEDTAVYYCAFITTESDYDLGRRYWGQGTLVTVSS
notes: also called IL6R20A11; IL6R300; not shown: c-myc and (His)6 tags
binding result [14]: no binding (tested: about 200 ng/mL (log conc 2.3))
